Source: the Immune Epitope Database (IEDB)
Values belong to the sequence of their own block, whether it stands above or below them.

What was measured:
HLA-A*02:01 [1] = experiment: IEDB peptide-MHC binding, purified MHC/competitive/radioactivity; ≥ and ≤ were set here for values at or beyond the usual limits of such assays
HLA-A*23:01 = experiment: IEDB peptide-MHC binding, purified MHC/direct/fluorescence; filed as Kd, often an IC50 or EC50 that approximates it; ≥ and ≤ were set here for values at or beyond the usual limits of such assays; conditions: source organism: Vibrio cholerae
HLA-A*24:03 = experiment: as above; conditions: source organism: Vibrio cholerae
HLA-C*03:03 = experiment: as above
HLA-C*07:02 = experiment: as above; conditions: source organism: Vibrio cholerae AM-19226
HLA-C*14:02 = experiment: as above
HLA-C*15:02 = experiment: as above
HLA-B*46:01 [2] = experiment: IEDB peptide-MHC binding, purified MHC/competitive/fluorescence; filed as Kd, often an IC50 or EC50 that approximates it; ≥ and ≤ were set here for values at or beyond the usual limits of such assays; conditions: source organism: Vibrio cholerae AM-19226
HLA-A*02:01 [3] = experiment: IEDB peptide-MHC binding, purified MHC/direct/fluorescence; filed as Kd, often an IC50 or EC50 that approximates it; ≥ and ≤ were set here for values at or beyond the usual limits of such assays
HLA-A*31:01 = experiment: as above
HLA-A*69:01 = experiment: as above
HLA-B*40:01 [4] = experiment: IEDB peptide-MHC binding, purified MHC/competitive/fluorescence; filed as Kd, often an IC50 or EC50 that approximates it; ≥ and ≤ were set here for values at or beyond the usual limits of such assays
HLA-C*06:02 = experiment: IEDB peptide-MHC binding, purified MHC/direct/fluorescence; filed as Kd, often an IC50 or EC50 that approximates it; ≥ and ≤ were set here for values at or beyond the usual limits of such assays
HLA-C*12:03 = experiment: as above
HLA-B*07:02 [5] = experiment: IEDB peptide-MHC binding, purified MHC/competitive/fluorescence; filed as Kd, often an IC50 or EC50 that approximates it; ≥ and ≤ were set here for values at or beyond the usual limits of such assays
HLA-A*01:01 = experiment: IEDB peptide-MHC binding, purified MHC/direct/fluorescence; filed as Kd, often an IC50 or EC50 that approximates it; ≥ and ≤ were set here for values at or beyond the usual limits of such assays
HLA-A*03:01 = experiment: as above; conditions: source organism: Lake Victoria marburgvirus - Popp
HLA-A*11:01 = experiment: as above
HLA-A*26:01 = experiment: as above; conditions: source organism: Orthomarburgvirus marburgense
HLA-A*68:02 = experiment: as above; conditions: source organism: Lake Victoria marburgvirus - Popp
HLA-B*07:02 [6] = experiment: as above; conditions: source organism: Lake Victoria marburgvirus - Popp
HLA-B*08:01 = experiment: as above
HLA-B*08:03 = experiment: as above; conditions: source organism: Orthomarburgvirus marburgense
HLA-B*15:01 [7] = experiment: as above; conditions: source organism: Lake Victoria marburgvirus - Popp
HLA-B*15:17 = experiment: as above
HLA-B*27:05 [8] = experiment: as above; conditions: source organism: Lake Victoria marburgvirus - Popp
HLA-B*40:01 [9] = experiment: as above; conditions: source organism: Lake Victoria marburgvirus - Popp
HLA-B*46:01 [10] = experiment: as above; conditions: source organism: Lake Victoria marburgvirus - Popp
HLA-B*48:01 = experiment: as above; conditions: source organism: Lake Victoria marburgvirus - Popp
HLA-B*57:01 = experiment: as above
HLA-B*58:01 = experiment: as above
HLA-A*02:06 = experiment: IEDB peptide-MHC binding, purified MHC/competitive/fluorescence; filed as Kd, often an IC50 or EC50 that approximates it; ≥ and ≤ were set here for values at or beyond the usual limits of such assays; conditions: source organism: Orthomarburgvirus marburgense
HLA-A*26:02 = experiment: as above; conditions: source organism: Orthomarburgvirus marburgense
HLA-B*27:05 [11] = experiment: as above
HLA-B*15:01 [12] = experiment: as above
HLA-B*39:01 = experiment: as above
HLA-B*18:01 = experiment: IEDB peptide-MHC binding, purified MHC/direct/fluorescence; filed as Kd, often an IC50 or EC50 that approximates it; ≥ and ≤ were set here for values at or beyond the usual limits of such assays; conditions: source organism: Marburg virus - Musoke, Kenya, 1980
HLA-A*30:01 = experiment: IEDB peptide-MHC binding, purified MHC/competitive/fluorescence; filed as Kd, often an IC50 or EC50 that approximates it; ≥ and ≤ were set here for values at or beyond the usual limits of such assays; conditions: source organism: Orthomarburgvirus marburgense
HLA-A*02:03 = experiment: IEDB peptide-MHC binding, purified MHC/direct/fluorescence; filed as Kd, often an IC50 or EC50 that approximates it; ≥ and ≤ were set here for values at or beyond the usual limits of such assays; conditions: source organism: Variola virus
HLA-C*05:01 = experiment: as above
HLA-B*35:01 = experiment: IEDB peptide-MHC binding, purified MHC/competitive/fluorescence; filed as Kd, often an IC50 or EC50 that approximates it; ≥ and ≤ were set here for values at or beyond the usual limits of such assays; conditions: source organism: Camelpox virus M-96
HLA-B*15:42 = experiment: as above; conditions: source organism: Mycobacterium tuberculosis C
HLA-B*45:06 = experiment: as above; conditions: source organism: Mycobacterium tuberculosis C
HLA-B*83:01 = experiment: as above; conditions: source organism: Mycobacterium tuberculosis C
[13] = source organism: Vibrio cholerae AM-19226
[14] = source organism: Pseudomonas aeruginosa
[15] = source organism: Rickettsia massiliae MTU5
[16] = source organism: Mycobacterium tuberculosis H37Ra
[17] = source organism: Lake Victoria marburgvirus - Popp
[18] = source organism: Orthomarburgvirus marburgense
[19] = source organism: Escherichia coli O139:H28 str. E24377A
[20] = source organism: Marburg virus - Musoke, Kenya, 1980
[21] = source organism: Camelpox virus CMS
[22] = source organism: Camelpox virus M-96

IC50 (HLA-A*02:01 [1]; source organism: Homo sapiens): 10200 nM
Sequence: HMTEVVRRC

Sequence: YALPSAGAF
Kd (HLA-A*23:01): 445 nM | Kd (HLA-A*24:03): 290 nM | Kd (HLA-C*03:03; [13]): ≤ 1 nM | Kd (HLA-C*07:02): 404 nM | Kd (HLA-C*14:02; [13]): 46 nM | Kd (HLA-C*15:02; [13]): 386 nM | Kd (HLA-B*46:01 [2]): 34.5 nM

Kd (HLA-A*02:01 [3]; [14]): 2270 nM | Kd (HLA-A*31:01; [14]): 207 nM | Kd (HLA-A*69:01; [14]): 4370 nM | Kd (HLA-C*14:02; source organism: Pseudomonas aeruginosa 2192): ≤ 1 nM
Sequence: AYFATPASV

Kd (HLA-B*40:01 [4]; source organism: Escherichia coli 536): 3.8 nM
Sequence: GEDAKLIAV

Sequence: FMRFAFLSM
Kd (HLA-C*06:02; [15]): ≥ 20000 nM | Kd (HLA-C*12:03; [15]): 894 nM | Kd (HLA-C*15:02; [15]): ≥ 20000 nM

Sequence: EIRTFSFQL
Kd (HLA-B*07:02 [5]; source organism: Influenza A virus (A/duck/England/1/1956(H11N6))): ≥ 20000 nM

Sequence: SPYNSRFESV
Kd (HLA-B*07:02 [5]; source organism: Influenza A virus): 3.4 nM

Sequence: GLIDIAPHQISS
IC50 (HLA-A*02:01 [1]; [16]): 173 nM

Sequence: KNYPASLHK
Kd (HLA-A*01:01; [17]): ≥ 20000 nM | Kd (HLA-A*02:01 [3]; [17]): ≥ 20000 nM | Kd (HLA-A*03:01): 102 nM | Kd (HLA-A*11:01; [17]): 91.7 nM | Kd (HLA-A*26:01): ≥ 20000 nM | Kd (HLA-A*31:01; [17]): ≥ 20000 nM | Kd (HLA-A*68:02): ≥ 20000 nM | Kd (HLA-B*07:02 [6]): ≥ 20000 nM | Kd (HLA-B*08:01; [18]): ≥ 20000 nM | Kd (HLA-B*08:03): ≥ 20000 nM | Kd (HLA-B*15:01 [7]): ≥ 20000 nM | Kd (HLA-B*15:17; [17]): ≥ 20000 nM | Kd (HLA-B*27:05 [8]): ≥ 20000 nM | Kd (HLA-B*40:01 [9]): ≥ 20000 nM | Kd (HLA-B*46:01 [10]): ≥ 20000 nM | Kd (HLA-B*48:01): ≥ 20000 nM | Kd (HLA-B*57:01; [17]): ≥ 20000 nM | Kd (HLA-B*58:01; [17]): ≥ 20000 nM | Kd (HLA-A*02:06): 627 nM | Kd (HLA-A*26:02): ≥ 20000 nM

Sequence: ILDAHSLYL
IC50 (HLA-A*02:01 [1]; source organism: Rift Valley fever virus): 1.3 nM

Sequence: FRWTQSLRR
Kd (HLA-B*27:05 [11]; source organism: Mammarenavirus machupoense): 39.8 nM

Kd (HLA-B*15:01 [12]; [19]): 143 nM | Kd (HLA-B*27:05 [11]; [19]): 191 nM | Kd (HLA-B*39:01; [19]): ≥ 20000 nM | Kd (HLA-B*40:01 [4]; [19]): 313 nM
Sequence: RQGWARAML

Sequence: QGKQHLHSL
Kd (HLA-A*01:01; [20]): ≥ 20000 nM | Kd (HLA-A*11:01; [20]): ≥ 20000 nM | Kd (HLA-A*31:01; [20]): ≥ 20000 nM | Kd (HLA-A*69:01; [20]): ≥ 20000 nM | Kd (HLA-B*08:01; [20]): 212 nM | Kd (HLA-B*15:17; [20]): ≥ 20000 nM | Kd (HLA-B*18:01): ≥ 20000 nM | Kd (HLA-B*57:01; [20]): ≥ 20000 nM | Kd (HLA-B*58:01; [20]): ≥ 20000 nM | Kd (HLA-A*26:02): ≥ 20000 nM | Kd (HLA-A*30:01): ≥ 20000 nM | Kd (HLA-B*07:02 [5]; [18]): ≥ 20000 nM | Kd (HLA-B*15:01 [12]; [18]): 4000 nM

IC50 (HLA-A*02:01 [1]; source organism: Homo sapiens): 45.7 nM
Sequence: VLMAVVLASL

Sequence: YQERFVLAL
Kd (HLA-B*27:05 [11]; [16]): 946 nM | Kd (HLA-B*39:01; [16]): 1.7 nM

Sequence: LMDENTYAM
Kd (HLA-A*02:01 [3]; [21]): ≤ 1 nM | Kd (HLA-A*02:03): 20 nM | Kd (HLA-A*69:01; [21]): 57.8 nM | Kd (HLA-C*03:03; [22]): 592 nM | Kd (HLA-C*05:01; [22]): 7 nM | Kd (HLA-C*12:03; [22]): ≥ 20000 nM | Kd (HLA-B*35:01): 0.2 nM

Sequence: YPRNGWPAL
Kd (HLA-C*05:01; source organism: Mycobacterium tuberculosis C): ≥ 20000 nM | Kd (HLA-B*15:42): ≥ 5000 nM | Kd (HLA-B*45:06): ≥ 5000 nM | Kd (HLA-B*83:01): 34.9 nM

Sequence: YRYSLSSDL
Kd (HLA-C*06:02; source organism: Vaccinia virus WR): 4 nM

Sequence: KINIFMAFL
Kd (HLA-C*14:02; source organism: Taterapox virus): ≥ 20000 nM

Sequence: FLPVDFFPSI
IC50 (HLA-A*02:01 [1]; source organism: Hepatitis B virus): 35 nM
